Measurements published in patent US20220387578A1.
Changes are numbered by the printed parent chain. In names and notes the source's numbering stands.

B1: rFluA-20 heavy chain mutant Y34A (antibody, V domains shown)
VH: QVQLQESGPGLVKPSETLSLTCSVSGVSVTSDIAYWTWIRQPPGKGLEWIGYIFYNGDTNYNPSLKSRVTMSIDTSKNEFSLRLTSVTAADTAVYFCARGTEDLGYCSSGSCPNHWGQGTLVTVSS
VL: DIQMTQSPSSLSASIGDRVTITCRPSQNIRSFLNWFQHKPGKAPKLLIYAASNLQSGVPSRFSGSGSGTEFTLTIRSLQPEDFATYYCQQSYNTPPTFGQGTKVEIK
B2: rFluA-20 heavy chain mutant T96A (antibody, V domains shown)
VH: B1 VH with A34Y, T101A
VL: B1 VL
B3: rFluA-20 heavy chain mutant E97A (antibody, V domains shown)
VH: B1 VH with A34Y, E102A
VL: B1 VL

Target: H3 HA A/Texas/50/2012, recombinant soluble trimer (influenza A virus)

Binder | EC50 [µg/mL]
B1 | 0.16
B2 | 0.07
B3 | 0.18

Target: H1 HA A/Solomon Islands/03/2006 (H1N1), recombinant soluble trimer (influenza A virus)

Binder | EC50 [µg/mL]
B1 | 0.04
B2 | 0.03
B3 | 0.07

Target: H1 HA A/Texas/36/1991 (H1N1), recombinant soluble trimer (influenza A virus)

Binder | EC50 [µg/mL]
B1 | 0.05
B2 | 0.04
B3 | 0.05
